In US20130130985A1 (published 2013):
Bridges are numbered along the chain shown (N, C = ends). Where no end group is shown, it is not given here. [ ]: non-standard residue; d: D form. Sec = N[C@@H](C[SeH])C(=O)O

T1: human oxytocin receptor (human, UniProt P30559 1-389)
T1 sequence (looked up): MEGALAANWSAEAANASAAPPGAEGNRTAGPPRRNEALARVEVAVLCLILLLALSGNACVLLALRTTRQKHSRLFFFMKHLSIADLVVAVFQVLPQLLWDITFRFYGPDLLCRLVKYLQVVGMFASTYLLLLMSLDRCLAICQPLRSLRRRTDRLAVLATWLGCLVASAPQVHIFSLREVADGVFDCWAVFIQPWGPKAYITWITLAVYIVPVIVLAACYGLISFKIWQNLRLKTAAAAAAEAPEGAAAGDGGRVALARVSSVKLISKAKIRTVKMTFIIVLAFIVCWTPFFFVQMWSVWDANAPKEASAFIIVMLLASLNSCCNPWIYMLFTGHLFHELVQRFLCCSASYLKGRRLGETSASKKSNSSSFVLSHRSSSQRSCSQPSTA

T2: human vasopressin V1b receptor (human, UniProt P47901 1-424)
T2 sequence (looked up): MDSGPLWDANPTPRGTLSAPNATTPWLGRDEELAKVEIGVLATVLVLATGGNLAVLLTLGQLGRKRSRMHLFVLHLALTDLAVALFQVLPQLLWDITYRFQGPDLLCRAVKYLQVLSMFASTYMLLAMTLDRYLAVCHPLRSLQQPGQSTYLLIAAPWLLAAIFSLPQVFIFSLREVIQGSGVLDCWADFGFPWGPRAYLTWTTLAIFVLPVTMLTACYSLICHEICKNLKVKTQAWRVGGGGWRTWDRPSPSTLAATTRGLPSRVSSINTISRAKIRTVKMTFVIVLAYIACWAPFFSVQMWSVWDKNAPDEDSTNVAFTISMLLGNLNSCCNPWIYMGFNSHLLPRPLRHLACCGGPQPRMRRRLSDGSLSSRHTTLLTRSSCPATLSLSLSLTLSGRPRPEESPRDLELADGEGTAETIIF


Assays:
[1] = target: T3, human vasopressin V1a receptor (human, UniProt P37288 1-418); experiment: cell-based or functional assay
T3 sequence (P37288 whole entry): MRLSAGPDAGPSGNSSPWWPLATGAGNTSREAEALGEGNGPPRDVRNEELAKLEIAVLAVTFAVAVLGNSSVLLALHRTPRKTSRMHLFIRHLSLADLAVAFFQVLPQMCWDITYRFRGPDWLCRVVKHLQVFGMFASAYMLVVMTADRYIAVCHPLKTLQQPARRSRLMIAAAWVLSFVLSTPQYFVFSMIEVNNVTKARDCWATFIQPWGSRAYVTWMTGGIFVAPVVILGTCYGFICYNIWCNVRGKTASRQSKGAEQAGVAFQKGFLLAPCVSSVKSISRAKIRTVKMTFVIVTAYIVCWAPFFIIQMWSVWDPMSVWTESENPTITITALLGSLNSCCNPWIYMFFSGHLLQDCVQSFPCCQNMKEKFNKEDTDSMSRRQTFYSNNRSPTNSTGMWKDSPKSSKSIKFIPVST

human oxytocin receptor [2] = target: T1, human oxytocin receptor; experiment: cell-based or functional assay
[3] = target: T2, human vasopressin V1b receptor; experiment: cell-based or functional assay
human oxytocin receptor [4] = target: T1, human oxytocin receptor; experiment: cell-based or functional assay; remark: listed apart in the source
[5] = target: T3, human vasopressin V1a receptor; experiment: cell-based or functional assay; remark: listed apart in the source
[6] = target: T2, human vasopressin V1b receptor; experiment: cell-based or functional assay; remark: listed apart in the source
[7] = target: human vasopressin V2 receptor (human, UniProt P30518 1-371); experiment: cell-based or functional assay
human oxytocin receptor [8] = target: T1, human oxytocin receptor; experiment: radioligand displacement (3H-OT), SPA beads, COS-1 membranes

| Binder | Emax, IP-One HTRF assay [1] [%] | Emax, IP-One HTRF assay (human oxytocin receptor [2]) [%] | Emax, IP-One HTRF assay [3] [%] | Emax, FLIPR calcium assay (human oxytocin receptor [4]) [%] | EC50, FLIPR calcium assay [5] [µM] | Emax, FLIPR calcium assay [6] [%] | Emax, cAMP accumulation assay [7] [%] | EC50, IP-One HTRF assay [1] [µM] | EC50, cAMP accumulation assay [7] [µM] | IC50 (human oxytocin receptor [8]) [µM] | Emax, FLIPR calcium assay [5] [%] |
| --- | --- | --- | --- | --- | --- | --- | --- | --- | --- | --- | --- |
| CYIQNCPLG-OH (disulfide 1-6) [[S-S]-OT-OH] | 77 | – | – | – | – | – | – | – | – | – | – |
| XYIQNXPLG (by its name: desaminoselenocysteine (3-selenopropanoic acid) at position 1, L-selenocysteine at position 6, diselenide bridge; free C-terminal carboxylic acid; structure is not given) [d[C1,6U]-OT-OH] | – | 71 | 63 | 49 | > 100 | 58 | 135 | – | – | – | – |
| XYIQNXPLG (L-selenocysteine at positions 1 and 6, diselenide bridge; free C-terminal carboxylic acid, also called [Se-Se]-OT-OH) [[C1,6U]-OT-OH] | – | 60 | – | 38 | > 100 | – | 114 | > 100 | 0.495 | 1.28 | – |
| CYIQNCPLX (C-terminal amide; Cys1 and Cys6 form the cyclic part (disulfide)) [Oxytocin] | 79 | – | – | – | – | – | – | – | – | – | 71 |
| [Sec]YIQNCPLG-NH2 (bridge 1-6 via selenosulfide) [[C1U]-OT] | 96 | 84 | – | 85 | – | 82 | – | – | – | – | 90 |
| CYIQN[Sec]PLG-NH2 (bridge 1-6; also: selenosulfide bond) [[C6U]-OT] | 67 | 55 | – | 82 | – | 73 | – | – | – | – | 104 |
